Laboratory results reported in PMC10792220 (Journal of Applied Glycoscience, 2023).

Assays:
[1] = target: Aspergillus oryzae α-xylosidase AxyC, His6-tagged (Aspergillus oryzae); test: SEC
AxyC = target: T1, AxyC (Aspergillus oryzae, UniProt A0ABQ6KV83); test: absorbance of released p-nitrophenol at […] nm; type: biochemical; details: read-out: Relative activity (%) at 40 mM
T1 sequence (A0ABQ6KV83 1-654): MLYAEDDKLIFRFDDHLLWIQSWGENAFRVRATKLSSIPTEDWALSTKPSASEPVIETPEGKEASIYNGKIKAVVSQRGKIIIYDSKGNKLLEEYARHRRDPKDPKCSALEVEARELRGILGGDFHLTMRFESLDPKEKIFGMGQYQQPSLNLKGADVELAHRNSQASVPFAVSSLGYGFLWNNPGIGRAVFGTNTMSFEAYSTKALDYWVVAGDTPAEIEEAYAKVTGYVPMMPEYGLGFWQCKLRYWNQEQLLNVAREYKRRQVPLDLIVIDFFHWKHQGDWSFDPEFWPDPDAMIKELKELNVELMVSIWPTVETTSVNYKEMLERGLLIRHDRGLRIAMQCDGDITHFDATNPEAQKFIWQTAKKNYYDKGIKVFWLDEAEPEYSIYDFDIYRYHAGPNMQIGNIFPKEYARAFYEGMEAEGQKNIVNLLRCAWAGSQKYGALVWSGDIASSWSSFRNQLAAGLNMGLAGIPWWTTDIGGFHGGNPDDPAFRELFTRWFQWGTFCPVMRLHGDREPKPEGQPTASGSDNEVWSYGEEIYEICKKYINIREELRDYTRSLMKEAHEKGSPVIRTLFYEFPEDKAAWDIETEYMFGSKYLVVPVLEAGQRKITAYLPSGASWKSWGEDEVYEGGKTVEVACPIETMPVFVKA

| activity at 40000 µM (AxyC) [%] | Compound | stoichiometry N [1] |
| --- | --- | --- |
| – | Aspergillus oryzae α-xylosidase AxyC, His6-tagged (enzyme) | 4 |
| 84.8 ± 4.5 | OC1OC[C@@H](O)[C@H](O)[C@H]1O (stereo partly drawn) [D-xylose] | – |
